First the molecules themselves.
T1: BANP BEN domain (human, UniProt Q8N9N5 208-347)
T1 sequence: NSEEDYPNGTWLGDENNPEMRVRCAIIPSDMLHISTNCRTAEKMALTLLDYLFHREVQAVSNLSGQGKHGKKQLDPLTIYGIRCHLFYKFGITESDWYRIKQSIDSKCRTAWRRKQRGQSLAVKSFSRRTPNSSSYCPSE

T2: BEND6 BEN domain (human, UniProt Q5SZJ8 170-271)
T2 sequence: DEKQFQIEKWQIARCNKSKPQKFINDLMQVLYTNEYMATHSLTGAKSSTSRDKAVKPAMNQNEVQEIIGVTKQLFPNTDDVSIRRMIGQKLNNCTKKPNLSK

B1: AAA and TCTCG both mutated (dsDNA)
DNA 1: GCCAGCAACATA
DNA 2: TATGTTGCTGGC
B2: AAA to cag (dsDNA)
DNA 1: GCCAGTCTCGTA
DNA 2: TACGAGACTGGC
B3: AAA to ggg (dsDNA)
DNA 1: GCGGGTCTCGTA
DNA 2: TACGAGACCCGC
B4: TCTCG to caaca (dsDNA)
DNA 1: GCAAACAACATA
DNA 2: TATGTTGTTTGC
B5: CTCtggcgAGAG (dsDNA)
DNA 1: CTCTGGCGAGAG
DNA 2: CTCTCGCCAGAG
B6: CTCgagcgAGAG (dsDNA)
DNA 1: CTCGAGCGAGAG
DNA 2: CTCTCGCTCGAG
B7: TCTCG to TCGCG (dsDNA)
DNA 1: GCAAATCGCGTA
DNA 2: TACGCGATTTGC
B8: CTCacgcgAGAG (dsDNA)
DNA 1: CTCACGCGAGAG
DNA 2: CTCTCGCGTGAG
B9: PBM motif DNA AAATCTCG (dsDNA)
DNA 1: GCAAATCTCGTA
DNA 2: TACGAGATTTGC
B10: CGCG DNA (dsDNA)
DNA 1: CTCTCGCGAGAG
DNA 2: CTCTCGCGAGAG
B11: CGmCG DNA (dsDNA)
DNA 1: CTCTCGCGAGAG
DNA 2: CTCTCGCGAGAG
modifications: 5-methylcytosine at C7 of both strands
B12: FAM methylated CGCG DNA (dsDNA)
DNA 1: CTCTCGCGAGAG
DNA 2: CTCTCGCGAGAG
modifications: 5-methylcytosine, position not given
B13: FAM-CGCG DNA (dsDNA)
DNA 1: CTCTCGCGAGAG
DNA 2: CTCTCGCGAGAG

Data on 13 molecules can be found in paper PMC10206803, “Structural insights into DNA recognition by the BEN domain of the transcription factor BANP”.

Broadly, the Kd is the constant that tells how readily two partners part at equilibrium.

For the first series, the target named is T1, BANP BEN domain. Kind of series: ITC; ITC: 150 mM NaCl, 20 mM Tris-HCl pH 7.5, with or without DTT, 25 C, 50-90 uM protein in cell, 1 mM DNA in syringe; FP: 20 mM Tris-HCl pH 7.5, 150 mM NaCl, 1 mM. The note with it: protein: recombinant; tags: His6-SUMO removed by TEV; blunt. Background: ITC needs no label: the signal is the heat of the interaction.
B1: the Kd was determined as 15.1 ± 1.9 µM. B2: the dissociation constant (Kd) came to 2.9 ± 0.3 µM. In the case of B3, the dissociation constant (Kd) came out at 4.3 ± 0.3 µM.

As for B4, the dissociation constant Kd was determined as 5.4 ± 0.4 µM. With B5, the equilibrium dissociation constant (Kd) worked out at 14.8 ± 2.3 µM. As for B6, the Kd was determined as 14.1 ± 3 µM. B7: the Kd is 1.5 ± 0.2 µM. On to B8, for which the Kd amounted to 14.3 ± 2.6 µM.

Turning to B9, the Kd is 1 ± 0.1 µM.

Still in this series, the particulars now being: protein: recombinant; tags: His6-SUMO removed by TEV; blunt, self-complementary.
Regarding B10, the dissociation constant Kd was 8.4 ± 0.7 µM.

In the case of B11, the Kd is 7.6 ± 0.3 µM.

Another series has as its target T2, BEND6 BEN domain. Kind of series: fluorescence polarization; ITC: 150 mM NaCl, 20 mM Tris-HCl pH 7.5, with or without DTT, 25 C, 50-90 uM protein in cell, 1 mM DNA in syringe; FP: 20 mM Tris-HCl pH 7.5, 150 mM NaCl, 1 mM. Conditions: protein: recombinant; tags: His6 (pET28-MHL) removed by TEV; label: 5' FAM. Background: Fluorescence polarisation rises when a labelled molecule tumbles more slowly, as on binding a larger partner.
B12: the equilibrium dissociation constant (Kd) was roughly 39 µM.

The same series, now with this note: protein: recombinant; tags: His6 (pET28-MHL) removed by TEV; label: 5' FAM; blunt, self-complementary.
Take B13: the equilibrium dissociation constant (Kd) is roughly 33 µM.
